Here are results for ten molecules from patent publication US20260365755 (published 2026).

Assay [1] addresses T1, FcγRIIa (human, UniProt P12318).
T1 chain: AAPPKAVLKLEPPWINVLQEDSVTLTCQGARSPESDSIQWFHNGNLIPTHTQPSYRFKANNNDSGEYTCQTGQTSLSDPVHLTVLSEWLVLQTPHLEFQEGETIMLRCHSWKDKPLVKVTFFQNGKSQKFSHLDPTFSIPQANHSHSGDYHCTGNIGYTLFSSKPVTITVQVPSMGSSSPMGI
Put plainly: BLI.

For assay [2], the target named is FcRn (human, UniProt P55899). Put plainly: BLI. In general terms: In BLI a coated tip is dipped into the sample, and binding shifts an interference pattern.
Assay [3] addresses FcγRIIIa (human, UniProt P08637). Put plainly: BLI.
The target in assay [4] is C1q (human, UniProt P02745). Put plainly: BLI.
Assay [5] concerns the target T2, VEGF165 (human, UniProt P15692).
T2 chain: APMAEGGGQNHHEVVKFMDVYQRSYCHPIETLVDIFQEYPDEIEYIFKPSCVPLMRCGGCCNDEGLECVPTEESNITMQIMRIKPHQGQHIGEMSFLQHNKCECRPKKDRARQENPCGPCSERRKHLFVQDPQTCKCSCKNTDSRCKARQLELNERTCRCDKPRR
Put plainly: ELISA.

Chain of FcγRIIIa (P08637 17-208): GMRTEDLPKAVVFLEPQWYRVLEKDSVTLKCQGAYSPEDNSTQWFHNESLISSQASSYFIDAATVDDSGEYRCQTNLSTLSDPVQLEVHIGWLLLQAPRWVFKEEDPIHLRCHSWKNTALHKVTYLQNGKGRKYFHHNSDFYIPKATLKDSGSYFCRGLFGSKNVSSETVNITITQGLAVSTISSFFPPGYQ
Chain of C1q (P02745 23-245, chain 1 of 3): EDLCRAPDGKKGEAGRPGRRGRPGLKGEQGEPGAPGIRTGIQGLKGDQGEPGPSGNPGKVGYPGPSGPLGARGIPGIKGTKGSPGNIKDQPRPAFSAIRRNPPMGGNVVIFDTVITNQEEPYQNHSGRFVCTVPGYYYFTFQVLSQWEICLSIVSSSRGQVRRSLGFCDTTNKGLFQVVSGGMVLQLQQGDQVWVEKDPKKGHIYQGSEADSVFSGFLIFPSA
Chain of C1q (P02746 28-253, chain 2 of 3, further chain): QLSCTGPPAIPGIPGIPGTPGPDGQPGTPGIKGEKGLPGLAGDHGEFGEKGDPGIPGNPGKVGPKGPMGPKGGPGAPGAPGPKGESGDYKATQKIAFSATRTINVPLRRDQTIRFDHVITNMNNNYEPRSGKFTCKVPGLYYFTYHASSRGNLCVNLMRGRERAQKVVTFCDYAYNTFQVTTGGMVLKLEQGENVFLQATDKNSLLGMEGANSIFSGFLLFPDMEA
Chain of C1q (P02747 29-245, chain 3 of 3, further chain): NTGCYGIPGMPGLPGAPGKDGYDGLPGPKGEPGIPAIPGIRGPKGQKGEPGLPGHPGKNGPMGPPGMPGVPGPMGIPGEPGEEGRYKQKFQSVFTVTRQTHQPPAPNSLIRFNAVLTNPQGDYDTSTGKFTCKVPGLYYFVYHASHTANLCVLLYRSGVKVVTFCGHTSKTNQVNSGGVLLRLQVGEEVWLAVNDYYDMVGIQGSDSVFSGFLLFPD
Chain of FcRn (P55899 24-297, chain 1 of 2): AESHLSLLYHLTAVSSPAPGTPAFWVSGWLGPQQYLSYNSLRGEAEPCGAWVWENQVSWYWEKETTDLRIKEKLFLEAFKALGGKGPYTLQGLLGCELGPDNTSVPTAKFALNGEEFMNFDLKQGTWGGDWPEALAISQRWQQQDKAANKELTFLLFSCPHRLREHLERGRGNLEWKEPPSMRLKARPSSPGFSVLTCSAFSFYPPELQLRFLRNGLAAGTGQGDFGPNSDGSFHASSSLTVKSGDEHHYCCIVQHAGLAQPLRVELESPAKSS
Chain of FcRn (chain, as listed by the source, chain 2 of 2): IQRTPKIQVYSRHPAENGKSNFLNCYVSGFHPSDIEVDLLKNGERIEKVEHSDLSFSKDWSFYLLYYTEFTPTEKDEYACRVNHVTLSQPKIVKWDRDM

B1: Q-SBL-127 (antibody)
chain 1: not shown
chain 2: not shown
chain 3: EVQLVESGGGLVQPGGSLRLSCAASGYTFTNYGMNWVRQAPGKGLEWVGWINTYTGEPTYAADFKRRFTFSLDTSKSTAYLQMNSLRAEDTAVYYCAKYPHYYGSSHWYFDVWGQGTLVTVSSASTKGPSVFPLAPSSKSTSGGTAALGCLVKDYFPEPVTVSWNSGALTSGVHTFPAVLQSSGLYSLSSVVTVPSSSLGTQTYICNVNHKPSNTKVDKKVEPKSCDKTHTCPPCPAPELLGGPSVFLFPPKPKDTLMISRTPEVTCVVVDVSHEDPEVKFNWYVDGVEVHNAKTKPREEQYNSTYRVVSVLTVLHQDWLNGKEYKCKVSNKALPAPIEKTISKAKGQPREPQVCTLPPSREEMTKNQVSLWCLVKGFYPSDIAVEWESNGQPENNYKTTPPVLFSDGSFFLYSKLTVDKSRWQQGNVFSCSVMHEALHNHYTQKSLSLSPGK
chain 4: not shown
Regarding B1, the Kd (in general, the equilibrium constant for the complex coming apart) in assay [1] was found to be 1630 nM; in assay [2] it was 750 nM; in assay [3] it was 230 nM; in assay [4], 18 nM.

B2: Q-SBL-137 (antibody)
chain 1: not shown
chain 2: not shown
chain 3: EVQLVESGGGLVQPGGSLRLSCAASGYTFTNYGMNWVRQAPGKGLEWVGWINTYTGEPTYAADFKRRFTFSLDTSKSTAYLQMNSLRAEDTAVYYCAKYPHYYGSSHWYFDVWGQGTLVTVSSASTKGPSVFPLAPSSKSTSGGTAALGCLVKDYFPEPVTVSWNSGALTSGVHTFPAVLQSSGLYSLSSVVTVPSSSLGTQTYICNVNHKPSNTKVDKKVEPKSCDKTHTCPPCPAPELLGGPSVFLFPPKPKDTLMISRTPEVTCVVVDVSHEDPEVKFNWYVDGVEVHNAKTKPREEQYNSTYRVVSVLTVLHQDWLNGKEYKCKVSNKALPAPIEKTISKAKGQPREPQVCTLPPSREEMTKNQVSLWCLVKGFYPSDIAVEWESNGQPENNYKTTPPVLDSDGSFFLYSSLTVDKSRWQQGNVFSCSVMHEALHNHYTQKSLSLSPGK
chain 4: not shown
B2: the Kd in assay [1] was 2120 nM; in assay [2] it was 580 nM; in assay [3], 380 nM; in assay [4], 24 nM.

B3: Q-SBL-131 (antibody)
chain 1: not shown
chain 2: not shown
chain 3: EVQLVESGGGLVQPGGSLRLSCAASGYTFTNYGMNWVRQAPGKGLEWVGWINTYTGEPTYAADFKRRFTFSLDTSKSTAYLQMNSLRAEDTAVYYCAKYPHYYGSSHWYFDVWGQGTLVTVSSASTKGPSVFPLAPSSKSTSGGTAALGCLVKDYFPEPVTVSWNSGALTSGVHTFPAVLQSSGLYSLSSVVTVPSSSLGTQTYICNVNHKPSNTKVDKKVEPKSCDKTHTCPPCPAPELLGGPSVFLFPPKPKDTLMISRTPEVTCVVVDVSHEDPEVKFNWYVDGVEVHNAKTKPREEQYNSTYRVVSVLTVLHQDWLNGKEYKCKVSNKALPAPIEKTISKAKGQPREPQVCTLPPSREEMTKNQVSLWCLVKGFYPSDIAVEWESNGQPENNYKTTPPVLFSDGSFFLYSKLTVDKSRWQQGNVFSCSVMHEALHNHYTQKSLSLSPGK
chain 4: not shown
In the case of B3, the Kd is 1620 nM in assay [1], 670 nM in assay [2], 330 nM in assay [3] and 16 nM in assay [4].

B4: Q-SBL-113 (antibody)
chain 1: not shown
chain 2: not shown
chain 3: EVQLVESGGGLVQPGGSLRLSCAASGYTFTNYGMNWVRQAPGKGLEWVGWINTYTGEPTYAADFKRRFTFSLDTSKSTAYLQMNSLRAEDTAVYYCAKYPHYYGSSHWYFDVWGQGTLVTVSSASTKGPSVFPLAPSSKSTSGGTAALGCLVKDYFPEPVTVSWNSGALTSGVHTFPAVLQSSGLYSLSSVVTVPSSSLGTQTYICNVNHKPSNTKVDKKVEPKSCDKTHTCPPCPAPELLGGPSVFLFPPKPKDTLMISRTPEVTCVVVDVSHEDPEVKFNWYVDGVEVHNAKTKPREEQYNSTYRVVSVLTVLHQDWLNGKEYKCKVSNKALPAPIEKTISKAKGQPREPQVCTLPPSRREMTKNQVSLWCLVKGFYPSDIAVEWESNGQPENNYKTTPPVLDSDGSFFLYSKLTVDKSRWQQGNVFSCSVMHEALHNHYTQKSLSLSPGK
chain 4: not shown
Consider B4, for which the Kd in assay [1] amounted to 2140 nM; in assay [2], 690 nM; in assay [3], 600 nM; in assay [4], 36 nM. For the same molecule, the EC50 – broadly, the concentration giving half of the maximal effect – in assay [5] was 0.154 nM.

B5: Q-SBL-130 (antibody)
chain 1: not shown
chain 2: not shown
chain 3: EVQLVESGGGLVQPGGSLRLSCAASGYTFTNYGMNWVRQAPGKGLEWVGWINTYTGEPTYAADFKRRFTFSLDTSKSTAYLQMNSLRAEDTAVYYCAKYPHYYGSSHWYFDVWGQGTLVTVSSASTKGPSVFPLAPSSKSTSGGTAALGCLVKDYFPEPVTVSWNSGALTSGVHTFPAVLQSSGLYSLSSVVTVPSSSLGTQTYICNVNHKPSNTKVDKKVEPKSCDKTHTCPPCPAPELLGGPSVFLFPPKPKDTLMISRTPEVTCVVVDVSHEDPEVKFNWYVDGVEVHNAKTKPREEQYNSTYRVVSVLTVLHQDWLNGKEYKCKVSNKALPAPIEKTISKAKGQPREPQVCTLPPSREEMTKNQVSLWCLVKGFYPSDIAVEWESNGQPENNYKTTPPVLFSDGSFFLYSKLTVDKSRWQQGNVFSCSVMHEALHNHYTQKSLSLSPGK
chain 4: not shown
Regarding B5, the Kd in assay [1] was found to be 1720 nM; in assay [2], 740 nM; in assay [3], 290 nM; in assay [4], 17 nM.

B6: Q-SBL-110 (antibody)
chain 1: not shown
chain 2: not shown
chain 3: EVQLVESGGGLVQPGGSLRLSCAASGYTFTNYGMNWVRQAPGKGLEWVGWINTYTGEPTYAADFKRRFTFSLDTSKSTAYLQMNSLRAEDTAVYYCAKYPHYYGSSHWYFDVWGQGTLVTVSSASTKGPSVFPLAPSSKSTSGGTAALGCLVKDYFPEPVTVSWNSGALTSGVHTFPAVLQSSGLYSLSSVVTVPSSSLGTQTYICNVNHKPSNTKVDKKVEPKSCDKTHTCPPCPAPELLGGPSVFLFPPKPKDTLMISRTPEVTCVVVDVSHEDPEVKFNWYVDGVEVHNAKTKPREEQYNSTYRVVSVLTVLHQDWLNGKEYKCKVSNKALPAPIEKTISKAKGQPREPQVCTLPPSRREMTKNQVSLWCLVKGFYPSDIAVEWESNGQPENNYKTTPPVLDSDGSFFLYSKLTVDKSRWQQGNVFSCSVMHEALHNHYTQKSLSLSPGK
chain 4: not shown
For B6, the values for the Kd in assay [1], in assay [2] and in assay [3] were 2290 nM, 610 nM and 570 nM, respectively. This molecule showed an EC50 in assay [5] of 0.168 nM.

B7: Q-SBL-109 (antibody)
chain 1: not shown
chain 2: not shown
chain 3: EVQLVESGGGLVQPGGSLRLSCAASGYTFTNYGMNWVRQAPGKGLEWVGWINTYTGEPTYAADFKRRFTFSLDTSKSTAYLQMNSLRAEDTAVYYCAKYPHYYGSSHWYFDVWGQGTLVTVSSASTKGPSVFPLAPSSKSTSGGTAALGCLVKDYFPEPVTVSWNSGALTSGVHTFPAVLQSSGLYSLSSVVTVPSSSLGTQTYICNVNHKPSNTKVDKKVEPKSCDKTHTCPPCPAPELLGGPSVFLFPPKPKDTLMISRTPEVTCVVVDVSHEDPEVKFNWYVDGVEVHNAKTKPREEQYNSTYRVVSVLTVLHQDWLNGKEYKCKVSNKALPAPIEKTISKAKGQPREPQVCTLPPSRREMTKNQVSLWCLVKGFYPSDIAVEWESNGQPENNYKTTPPVLDSDGSFFLYSKLTVDKSRWQQGNVFSCSVMHEALHNHYTQKSLSLSPGK
chain 4: not shown
Take B7: the dissociation constant Kd is 2200 nM in assay [1], 640 nM in assay [2], 340 nM in assay [3] and 28 nM in assay [4].

B8: Q-SBL-116 (antibody)
chain 1: not shown
chain 2: not shown
chain 3: EVQLVESGGGLVQPGGSLRLSCAASGYTFTNYGMNWVRQAPGKGLEWVGWINTYTGEPTYAADFKRRFTFSLDTSKSTAYLQMNSLRAEDTAVYYCAKYPHYYGSSHWYFDVWGQGTLVTVSSASTKGPSVFPLAPSSKSTSGGTAALGCLVKDYFPEPVTVSWNSGALTSGVHTFPAVLQSSGLYSLSSVVTVPSSSLGTQTYICNVNHKPSNTKVDKKVEPKSCDKTHTCPPCPAPELLGGPSVFLFPPKPKDTLMISRTPEVTCVVVDVSHEDPEVKFNWYVDGVEVHNAKTKPREEQYNSTYRVVSVLTVLHQDWLNGKEYKCKVSNKALPAPIEKTISKAKGQPREPQVCTLPPSRKEMTKNQVSLWCLVKGFYPSDIAVEWESNGQPENNYKTTPPVLDSDGSFFLYSKLTVDKSRWQQGNVFSCSVMHEALHNHYTQKSLSLSPGK
chain 4: not shown
Regarding B8, the Kd came out at 2340 nM in assay [1], 650 nM in assay [2], 370 nM in assay [3] and 33 nM in assay [4].

B9: Q-SBL-102 (antibody)
chain 1: not shown
chain 2: not shown
chain 3: EVQLVESGGGLVQPGGSLRLSCAASGYTFTNYGMNWVRQAPGKGLEWVGWINTYTGEPTYAADFKRRFTFSLDTSKSTAYLQMNSLRAEDTAVYYCAKYPHYYGSSHWYFDVWGQGTLVTVSSASTKGPSVFPLAPSSKSTSGGTAALGCLVKDYFPEPVTVSWNSGALTSGVHTFPAVLQSSGLYSLSSVVTVPSSSLGTQTYICNVNHKPSNTKVDKKVEPKSCDKTHTCPPCPAPELLGGPSVFLFPPKPKDTLMISRTPEVTCVVVDVSHEDPEVKFNWYVDGVEVHNAKTKPREEQYNSTYRVVSVLTVLHQDWLNGKEYKCKVSNKALPAPIEKTISKAKGQPREPQVCTLPPSREEMTKNQVSLWCLVKGFYPSDIAVEWESNGQPENNYKTTPPVLHSDGSFFLYSKLTVDKSRWQQGNVFSCSVMHEALHNHYTQKSLSLSPGK
chain 4: not shown
On to B9, for which the Kd stood at 1700 nM in assay [1], 710 nM in assay [2], 420 nM in assay [3] and 40 nM in assay [4].

B10: Q-SBL-112 (antibody)
chain 1: not shown
chain 2: not shown
chain 3: EVQLVESGGGLVQPGGSLRLSCAASGYTFTNYGMNWVRQAPGKGLEWVGWINTYTGEPTYAADFKRRFTFSLDTSKSTAYLQMNSLRAEDTAVYYCAKYPHYYGSSHWYFDVWGQGTLVTVSSASTKGPSVFPLAPSSKSTSGGTAALGCLVKDYFPEPVTVSWNSGALTSGVHTFPAVLQSSGLYSLSSVVTVPSSSLGTQTYICNVNHKPSNTKVDKKVEPKSCDKTHTCPPCPAPELLGGPSVFLFPPKPKDTLMISRTPEVTCVVVDVSHEDPEVKFNWYVDGVEVHNAKTKPREEQYNSTYRVVSVLTVLHQDWLNGKEYKCKVSNKALPAPIEKTISKAKGQPREPQVCTLPPSRREMTKNQVSLWCLVKGFYPSDIAVEWESNGQPENNYKTTPPVLDSDGSFFLYSKLTVDKSRWQQGNVFSCSVMHEALHNHYTQKSLSLSPGK
chain 4: not shown
For B10, the Kd amounted to 2020 nM in assay [1], 720 nM in assay [2], 600 nM in assay [3] and 32 nM in assay [4]. Besides, in assay [5], the EC50 was determined as 0.149 nM.
